Results published in paper PMC4627094.

Tests used:
[1] = target: T1, APOBEC3G (A3G) (human, UniProt Q9HC16 1-384); test: fluorescence anisotropy; 10 mM MgCl2; 40 mM Tris pH 7.2, 50 mM NaCl, 10 mM MgCl2, 1 mM DTT, 0.1% Triton X-100, 2% glycerol, 37 C 20 min; FA with 2 nM labeled NA; UV cross-linking in 1X PBS, 37 C 20
[2] = target: T1, APOBEC3G (A3G); test: EMSA; 37 C, 2.0 uM RNA; 40 mM Tris pH 7.2, 50 mM NaCl, 10 mM MgCl2, 1 mM DTT, 0.1% Triton X-100, 2% glycerol, 37 C 20 min; FA with 2 nM labeled NA; UV cross-linking in 1X PBS, 37 C 20
[3] = target: T1, APOBEC3G (A3G); test: competition (fluorescence anisotropy); vs labeled 25 nt Sub RNA (N2); 40 mM Tris pH 7.2, 50 mM NaCl, 10 mM MgCl2, 1 mM DTT, 0.1% Triton X-100, 2% glycerol, 37 C 20 min; FA with 2 nM labeled NA; UV cross-linking in 1X PBS, 37 C 20
[4] = target: T1, APOBEC3G (A3G); test: competition (fluorescence anisotropy); vs labeled 25 nt Sub ssDNA (N1); 40 mM Tris pH 7.2, 50 mM NaCl, 10 mM MgCl2, 1 mM DTT, 0.1% Triton X-100, 2% glycerol, 37 C 20 min; FA with 2 nM labeled NA; UV cross-linking in 1X PBS, 37 C 20

T1 sequence (Q9HC16 whole entry): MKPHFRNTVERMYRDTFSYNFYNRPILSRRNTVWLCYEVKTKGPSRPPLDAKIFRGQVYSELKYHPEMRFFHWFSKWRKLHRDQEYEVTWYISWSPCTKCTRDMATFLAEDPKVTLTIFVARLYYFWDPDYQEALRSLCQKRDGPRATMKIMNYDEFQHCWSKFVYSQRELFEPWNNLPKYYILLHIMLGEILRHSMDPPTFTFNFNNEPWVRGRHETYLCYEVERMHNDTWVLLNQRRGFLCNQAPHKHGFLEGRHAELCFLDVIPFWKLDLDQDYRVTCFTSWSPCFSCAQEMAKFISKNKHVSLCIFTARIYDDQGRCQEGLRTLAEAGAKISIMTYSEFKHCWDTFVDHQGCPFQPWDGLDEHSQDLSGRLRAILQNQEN

Question: TTATTUUUAAGGATTTATTTATTTA (ssDNA, dU at positions 6-8) [25 nt Sub ssDNA, Alexa 647] was tested. Which Kd [1] did it give?
Answer: 3.8 nM

Question: Does CAUAUAUGAUACAAUUUGAUCAGUA (ssRNA) [25 nt ApoB RNA] bind [2]?
Answer: binds

Question: How did the Kd [1] turn out when TTATTUUUAAGGATT (ssDNA, dU at positions 6-8) [15 nt Sub ssDNA, Alexa 647] was run?
Answer: 10 nM

Question: How did the IC50 [3] turn out when TTATTUUUAAGGATTTATTTATTTA (ssDNA, dU at positions 6-8) [25 nt Sub ssDNA (unlabeled or 32P)] was run?
Answer: 22 nM

Question: What about the IC50 [4] of the same binder?
Answer: 15 nM

Question: UUAUUUUUAAGGAUUUAUUUAUUUA (ssRNA) [25 nt Sub RNA, unlabeled] was tested. Which IC50 [3] did it give?
Answer: 115 nM

Question: What about the IC50 [4] of the same binder?
Answer: 57 nM

Question: UUAUUUUUAAGGAUUUAUUUAUUUA (ssRNA) [25 nt Sub RNA, Alexa 647] was tested. Which Kd [1] did it give?
Answer: 2.9 nM

Question: UUAUUUUUAAGGAUU (ssRNA) [15 nt Sub RNA, Alexa 647] was tested. Which Kd [1] did it give?
Answer: 4.4 nM
